Reference: the nanobody polyreactivity screen of Harvey et al. (2022)

test: yeast display, Sf9 membrane polyspecificity reagent, FACS + sequencing; frameworks hold sequencing errors
How it was run: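 Nanobodies from a synthetic yeast display library (Saccharomyces cerevisiae BJ5465), induced 36–48 hours with galactose, were stained 1 hour at 4 °C with 10% biotinylated, detergent-solubilized Sf9 membrane reagent, enriched on streptavidin microbeads, then FACS-sorted. Anti-HA (expression) and streptavidin (reagent binding) fluorescence set low and high (top ~1%) gates. Polyreactivity labels come from the gate of origin. Genes were colony-PCR amplified, MiSeq 2 × 250 sequenced and filtered by CDR length.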

Sequence	polyreactivity (PSR sort gate)
QVQLVESGGGLVQAGGSLRLSCAASGSIFRGYVRGWYRQAPGKERELVAAITWSTGSTYYADSVKGRFTISRDNAKNTVYLQMNSLKPEDTAVYYCAAVRRWAANRYQSGVTGNYWGQGTKVTVSS	high polyreactivity
QVQLVESGGGLVQAGGSLRLSCAASGSIFRHNAMGWYRQAPGKERELVAAISRRASSTYYADSVKGRFTISRDNAKNTVYVQMNSLKPEDTAVYYCAVVPSSTYHAYDYWGQGTQVTVSS	high polyreactivity
QVQLVESGGGLVQAGGSLRLSCAASGSIFRIKAMGWSRQAPGKERELVAAITGRVGSTYYADSVKGRFTISRDNAKNTVYLQMNSLKPEDTAVYYCAARAGSSRYTREYRYDYWGQGTQVTVSS	high polyreactivity
QVQLVESGGGLVQAGGSLRLSCAASGSIFRINAMGWYRPAPGKEREFVAAIRGSGGRTYYAESVKGRFTISRDNAKNTVYLQMNSLKPEDTAVYYCAADFSYRYFQRTSWPFDYWGQGTQVTVSS	high polyreactivity
QVQLVESGGGLVQAGGSLRLSCAASGSIFRINAMGWYRQAPGKERELVAAISWSGGSTYYADSVKGRFTISRDNAKNTVYVQMNSLKPEDTAVYYCAAVVSKSSFDYWGQGTQVTVSS	low polyreactivity
QVQLVESGGGLVQAGGSLRLSCAASGSIFRIYAMGGYRQAPGKERELVAAITGRGGSTYYADSVKGRFTISRDNAKNTVYLQRNSLKPEDTAVYYCAAEERYAYRYDYWGQATQVTVSS	high polyreactivity
QVQLVESGGGLVQAGGSLRLSCAASGSIFRIYAMGWYRQATGKETELVAAITWSGGSTYYADSVKGRFTISRDNAKNSVYLQMNSLKPEDTAVYYCAAVVIYWYQRVGYRSDYWGQGTQVTVSS	high polyreactivity
QVQLVESGGGLVQAGGSLRLSCAASGSIFRKNAMGRYRQAPGKERELVAAITGTGRTTYADSVKGRFTISRDNAKNTVYLQMNSLKPEDTAVYYCAADVNYYQHRLYYWGQGTQVTVSS	low polyreactivity
QVQLVESGGGLVQAGGSLRLSCAASGSIFRKNAMGWYRQAPGKERELVAAISSSGGRTYYADSVKGRFTISRDNAKNTVYLQMNSLKPEDTAVYYCNTGPGQSFRYNYWGQGTQVTVSS	high polyreactivity
QVQLVESGGGLVQAGGSLRLSCAASGSIFRLNAMGWYRQAPGKERELVAAISVSGTRTYYADSVKGRFTISRDNAKNIVYLQMNSLKPEDTAVYYCAARVYKGQGKGDYWGQGTQVTVSS	high polyreactivity
QVQLVESGGGLVQAGGSLRLSCAASGSIFRLNTKGGYRQAPGKERELVAAISNGGRTYYADSVTGRFTISRDNAKNTVYLQMNSLKPEDTAVYYCNVRYGRSKIYGYWGQGTQVTVSS	high polyreactivity
QVQLVESGGGLVQAGGSLRLSCAASGSIFRNNAMGWYRQAPGKERELVASITRRGGSTYYADSVKGRFTISRDNAKNTVYLQMNSLKPEDTAVYYCAATTQHRYKLNYWGQGTHVTVSS	high polyreactivity
QVQLVESGGGLVQAGGSLRLSCAASGSIFRNNAMGWYRQAPGKERELVAVINSRGGTTYYADSVKGRFTISRDNAMNPVYLQMNSLIPEDTAVYYCAARIRTSDRRYYWGQGTQVTVSS	high polyreactivity
QVQLVESGGGLVQAGGSLRLSCAASGSIFRNYAMGRSRQAPGKERELVAAITSGVRTNYADSVKGRFTISRDNAKNTVYLQMNSLKPEDTAVYYCNKGYNAVWRYRGDYWGQGTHVTVSS	high polyreactivity
QVQLVESGGGLVQAGGSLRLSCAASGSIFRNYAMGWSRQAPGKERELVAAINWNGGSTYYADSVKGRFTISRDNAKNTVYLQMNSLKPEDTAVYYCAARSSKFVTSNRYDYWGQGTQVTVSS	high polyreactivity
QVQLVESGGGLVQAGGSLRLSCAASGSIFRPNAMGWYRQAPGKERELVAAITFRGSRTYYADSVKGRFTISRDNAKNTVYLQMNSLKPEDTAVYYCNADYSSYWTSYDYWGQGTQVTVSS	high polyreactivity
QVQLVESGGGLVQAGGSLRLSCAASGSIFRPNAMGWYRQAPGKERELVAAITWSGDSTYYADSVKGRFTLSRDNAKNTVYRQMNSLKPVDTAVYYCATDPDYVLYRTAYYEFDYWGQGTHVTVSS	low polyreactivity
QVQLVESGGGLVQAGGSLRLSCAASGSIFRPNTMGWYRQAPGKERELVAAIRAGGRTYYADSVKGRFTISRDNAKNTVYLQMNSLKPEDTAVYYCNAVPASASTWRGQVGYDYWGQGTQVTVSS	high polyreactivity
QVQLVESGGGLVQAGGSLRLSCAASGSIFRPSAMGWYRQAPGKERELVAAIRWSTGNTYYADSVKGRFTISRDNAKNTVYLQMNSLKPEDTAVYYCAAAYWPVVWFYYWGQGTQVTVSS	low polyreactivity
QVQLVESGGGLVQAGGSLRLSCAASGSIFRPYAMGWYRQAPGKERELVAAITSGGRTNYADSVKGRFTISRDNAKNTVYLQMNSLKPEDTAVYYCAKTGSYAKIRPNNDYWGQGTQVTVSS	low polyreactivity

Sequence	polyreactivity (PSR sort gate)
QVQLVESGGGLVQAGGSLRLSCAASGSIFRPYTMGWYRQAPGKEREFVAAITWSDGSTYYADSVKGRFTISRDNAKNTVYLQINSLKPLDTAVYDCAADLHDGYYYSFWYGYDYWGQGTQVTVSS	low polyreactivity
QVQLVESGGGLVQAGGSLRLSCAASGSIFRQYAMGWYRQAPGKERELVAAITYSGGNTYYADSVKGRFTISRDNAKNTVYLQMNSLKPEDTAVYYCAADYGSRSWEYNYWGQGTQVTVSS	low polyreactivity
QVQLVESGGGLVQAGGSLRLSCAASGSIFRQYAMGWYRQAPGKERELVATISRSGGSTYYADSVKGRFTISRDNAKNTVYLQMNSLKPEDTAVYYCAASRYNKSYREWWVGSWGQGTQVTVSS	high polyreactivity
QVQLVESGGGLVQAGGSLRLSCAASGSIFRRNAMGWYRQAPAKERDLVAAISVRGGSTYYAYSVKGRFTISRDLAKNTVYLQMISLKPEDTAVYYCAADEFDDYDWYRGYDSTYDYWGQGTQVTVST	low polyreactivity
QVQLVESGGGLVQAGGSLRLSCAASGSIFRRNAMGWYRQAPGKERELVAAINSGGTTYYADSVKGRFTNSRDNAKNTVYLQMNSLKPEVTAVYYCATVYRGWYYYWGQGTQVTVSS	high polyreactivity
QVQLVESGGGLVQAGGSLRLSCAASGSIFRRNAMGWYRQAPGKERELVAAISIRGGSTYYADSVKGRFTISRDNAKNTVYLQMNSLKPEDTAVYYCNAKFRKADYDYWGQGTQVTVSS	high polyreactivity
QVQLVESGGGLVQAGGSLRLSCAASGSIFRRNAMGWYRQAPGKERELVATITSDGSTDYADSVKGRFTISRDNAKNTFYLQMISLKPEDTAVYYCAVAYLWRPYDFREFDYWGQGTQVTLSS	low polyreactivity
QVQLVESGGGLVQAGGSLRLSCAASGSIFRRNAMGWYRQAPGTERELVAAISLRGGSTYYADSVKGRFTISRDLAKNTVYLQMISLKTQDTAVYYCADDEFDDYDWYRGYDTTYDYWGQGTQVTGSS	low polyreactivity
QVQLVESGGGLVQAGGSLRLSCAASGSIFRRYAMGWYRQAPGKEREFVAAITGSGGRTYYADSVKGRFTISRDNAKNTVYLQMNSLKPEDTAVYYCAARRRDRVTYYYWGQGTQVTVSS	high polyreactivity
QVQLVESGGGLVQAGGSLRLSCAASGSIFRRYAMGWYRQAPGKERELVAGISSGGYTNYADSVKGRFTISRDNAKNTVYLQMNRLKPEDTAVYYCAAKQYRYVRYRPVDYWGQGTQVTVSS	high polyreactivity
QVQLVESGGGLVQAGGSLRLSCAASGSIFRRYAMGWYRQAPGKERELVATITSSVCRTYYADSVKARFTISRDTAKNTVYLQMNSLKPEETAVYFCAVYVGLWGAGGKGDYWGQGTQVTVSS	low polyreactivity
QVQLVESGGGLVQAGGSLRLSCAASGSIFRRYAMGWYRQEPGKEMEFVAAITGSGGRTYYADSVKGRITISRDNAKNTVYLQMNSLKPEDTAVYYCAARRRDRVTYYYWGQGTQVTVSS	high polyreactivity
QVQLVESGGGLVQAGGSLRLSCAASGSIFRRYAMGWYRQPPGKERELVASISSRGTRTYYADSVKGRFTISRDNAKNTVYLQMNSLKPEDTAVYYCAASYYTPYDYWGQGTQVTVSS	high polyreactivity
QVQLVESGGGLVQAGGSLRLSCAASGSIFRSYAIGWYRQAPGKERELVASISRRGGSTYYADSVKGRFTISRDNAKNTVYLQMKSLKPEDTAVYYCAAVRYNSRVSTTPSEMYYWGQGTQVTVSS	low polyreactivity
QVQLVESGGGLVQAGGSLRLSCAASGSIFRSYALGGYRQAPGKERELVASISRRGGSTYYADSVKGRFTISRDNAKNTVYLQMNSLKPQDTAVYYCAAVRYNSRGSTTPSEMYYWGQGTQVTVSS	low polyreactivity
QVQLVESGGGLVQAGGSLRLSCAASGSIFRSYAMGWYRQAPGKERELVAAISSGGRTKYADSVKGRFTISRDNAKNTVYLQMNSLKPEDTAVYYCAARVNVKYYGFYYWGQGTQVTVSS	high polyreactivity
QVQLVESGGGLVQAGGSLRLSCAASGSIFRSYAMGWYRQAPGKERELVAAITSSSGSTYYADSVKGRFTISRDNAKNTVYLQMNSLKPEDTAVYYCNAPYWKSRFRAYYHWGQGTQVTVSS	high polyreactivity
QVQLVESGGGLVQAGGSLRLSCAASGSIFRTNTMGWYRQAPGKERELVAAITAIGDSTYYADSVKGRFTISRDNAKNTVYLQMNSLKPEDTAVYYCAAEKVSWGYHFYSSYDYWGQGTQVTVSS	low polyreactivity
QVQLVESGGGLVQAGGSLRLSCAASGSIFRTYAMGWYIQAPGKERELVAAIRRSGGRTYYADSVKGRFTISRDNAKNTVYLQMNSLKPEDTAVYYCNKRVSKQSKYDYWGQGTQVTVSS	high polyreactivity
QVQLVESGGGLVQAGGSLRLSCAASGSIFRTYAMGWYRQAPGKEWELVAAISGSGSRTYYADSVKGRFTISRDNAKNTVYLQMNSLKPEDTAVYYCAAQTFAYKVFFLYDYWGQGTQVTVSS	low polyreactivity
